Assay: soluble on expression in E. coli; label from the status in PepcDB or PDB records

Sequence | soluble on expression in E. coli
MGRNRIKKVTERLPLPPNARRVEDPEMNMSREVVEDPGVPGTQDVTFAVAEVNGVETGRLPVANVVVTPAHEAVVRVGTKPGTEVPPVIDGSIWDAIAGCEAGGNWAINTGNGYYGGVQFDQGTWEANGGLRYAPRADLATREEQIAVAEVTRLRQGWGAWPVCAARAGAR | soluble
MYRIGELAKMAEVTPDTIRYYEKQQMMEHEVRTEGGFRLYTESDLQRLKFIRHARQLGFSLESIRELLSIRIDPEHHTCQESKGIVQERLQEVEARIAELQSMQRSLQRLNDACCGTAHSSVYCSILEALEQGASGVKSGC | not soluble
MGSDKIHHHHHHMRLVLSGYYGFYNVGDEAILQSIIKALYEEEPTLELVVLSNDPDYTRKMYGVEAVNRWDIRAIYKEIKRSSGLISGGGSLLQDKTSIKSILYYTGIMRIARFLKKPYYIYAQGIGPITKRQNRLLVKWQVSKAEYISVRDEDSFLYLKEIGIKKDIELVPDPVLACQSEGMKSEWLQKHSIQGKVIAVSVRYWDAKEDYMKKLADTLKKFKRDGYHILFVPMHGPFDQNASRDIINLMGEEAHMLPYKLDIHEKISIFSECSLLIGMRLHALILSAVANIPMVGISYDPKVDSFLQQVNQPIIGNVDGDWTAETLYNVAMKQLEQKEYIQAKLEQRVEELREQISTASRYIISDLNSKEFKKENVEFHK | not soluble
MWGWKAVGIKIDPSVSLEQAREIIKEAGFQEYVVNPEYIIFKQTGTQLTIKGEELPIEVVIGSAESGIFLQARYDTFVLFDSGDLAKLADELVFKLSV | not soluble
GSASPTPPYLKWAESLHSLLDDQDGISLFRTFLKQEGCADLLDFWFACTGFRKLEPCDSNEEKRLKLARAIYRKYILDNNGIVSRQTKPATKSFIKGCIMKQLIDPAMFDQAQTEIQATMEENTYPSFLKSDIYLEYTRTGSESPKV | soluble
MHHHHHHSSGVDLGTENLYFQSMGLSRVRAVFFDLDNTLIDTAGASRRGMLEVIKLLQSKYHYKEEAEIICDKVQVKLSKECFHPYNTCITDLRTSHWEEAIQETKGGAANRKLAEECYFLWKSTRLQHMTLAEDVKAMLTELRKEVRLLLLTNGDRQTQREKIEACACQSYFDAVVVGGEQREEKPAPSIFYYCCNLLGVQPGDCVMVGDTLETDIQGGLNAGLKATVWINKNGIVPLKSSPVPHYMVSSVLELPALLQSIDCKVSMST | soluble
MAGDPNSMKYSDLRDFIAQLESRELLKRIDYPVSPHLEMTLVSDKVLRSGGPALLFTNTPNYNMPVLTNLFGTVERVALGMGEESIVALREIGKLLAALKEPDPPKGFKDAFSKLPLLKQALNMAPKYVSGAECQTHVWEKDEVDLTLLPIQTCWPGDVAPLITWGLVTTRGPHQSRENMGIYRQQLLSKNKLIMRWLSHRGGALDYQAWQQEYPKERFPVAVTLGADPATILAAVTPVPDTLSEYAFAGLLRGQRTRLTRCIGNDLHVPASAEIVLEGYLEPGNEAPEGPYGDHTGYYNEVQSFPVFTVERITHRDKPIYHSTYTGRPPDEPAILGVALNEVFIPLLQKQFPEIVDFYLPPEGCSYRLAVVTIKKQYPGHAKRIMMAVWSFLRQFMYTKFVIVCDDDVDARNWQDVIWAMTTRMDPSRDTVMVENTPIDYLDFASPVSGLGSKMGMDATSKWPGETQREWGKPITMDEDVLNRVNGYWSLLGLKLEHHHHHH | not soluble
MGSDKIHHHHHHMTCAFARTVESRFAELTPTAKRIASYMLANLDRLGLETADQIAQQTGTSGISVGRFLRSVGYRNLDDLKRELRGGADRPWMITDRLDEYRRTNGTNGTAGTQAAAIHSDDRALASSLDRELDAIRHVYRLAEEPVFAQVADRIAHADAVFILGIQSTRGISNAFSSYLEYLRPRVFYSDGQSGSYVDSLNSEFERPYCIVTDVRAYSRSARRYCQAAAERGQPFALVTDLYCPWAREWPADLLQVKTDVGQFWDSLAPLTCLFNLLITAVVDRLGPAIDRRVARNRELQHTFDQFES | not soluble
MSLGETFTITKMNVERIKQEERLFCKSCASPVMIKAGQIKIPHFAHEKTMKCAFASEGESEEHLAAKKQIMAWYCYQSIPVEVESYFPEIKRQADIFVNGKAVIEFQRSSISISEMIQRTMDYLSIGLEVHWILGQVVRKEKGRICLSAFQQAFIQSDKKLGYHFWHYSTEREICTLYYHLTFEKGNRFFASEMKFSMKAPFSEWKKKLARIITRHAYVKRDRELERQKICFYYAKFKKHGQFMQKLFNAGYYLHYLPKEIGVDLEEQFLVITPAVEWQFDLWEKFFKGLEKGDTFSECCFFESFQSVVTQILTIWLSPNESLKLGKSYLSYLIGEGVLSTIPDNRYRVKRKMVFTNTRAAHIEGHHHHHH | not soluble
MGSDKIHHHHHHMPADSVRPTWSLTDIPYATIEKEKIIGNTDWFYLLAGASFVETLSDLYTRNLVEYYQENVGATTWLRQEWEMEEVQHGHALRRYVLFVWPDFDWERAYQGFVTAYAPCCRTELLGPTHALEMASRCVVETGTASFYTMIQAASPEPVLRQIAAHIRADEVHHYKYFYRIFRQYQAAEKNSRWRIGRELWKRVAEAEQEDSYLAIKNAFEVKNPGEKFFIEDFAAFRKRIGGWVDRYYPFDMAIKMLLKPVALPPMLQRAALPLLSHGARRAILG | not soluble
MTLDDSSLQKFGFIKRETLGSINIDPLQTGGLLTGAAKQALVEWGDGYSVCDFCGGVLDLVKKPPIHDFVHKALPEFLGCDEARVTNGARESKFAVMHSMGKPGDWVVLDGLAHYSSYVAAERAGLNIEVVPHAGSPEYHLDPGRYGKAIEEVTKENGKPPVLALVTYPDGSYGNIPDAAKIASVCHEYDVPLLLNGAYSVGRMPVSAKEIGADFIVGSGHKSMAASGPVGVLGVSEEYAPVVFRKSVHNKVKEIELLGCTARGATVMTLMASFPEVVKRTRNWDQEVENARWFSSRLEGMGFIQRGQKPHSHDLMFFEAPGFYEISQKVKNGRYFLYRELKERNIHGIKSGLTKYFKLSTFGLGKEKLGTVADAFEDILKKYENI | not soluble
MGSDKIHHHHHHSESIIEEAVRKGEVLKGEIVPIDTALFRYAYRMRVQGDKAVILDLHNADYYYHVFTYPDFQYQSSFGKRGEGPGESIYAANIRFAGQDTVWVLDDGKGRMYQYSGIAGGKTPKQEKDILLDKRLFRSLDFDLKDASTVVIPDYSGENRFSWASLSSGELLRKSEQIPVSDPELLRESAPAVAQGWNSFVSFSPDKKILVSVTQFGDRLDIYSMASQKHIGELGGDGEPQFKVSPEGYGLPAGRICYYDVQVTDQYIYTIYDGRKFKDIMKLADAYQQGGKILRISTHEGDVVKTYVLDRPIAGIYVDEAAGMLFGLDVNADEQIVKFPLELE | not soluble
MMRNEHVAKGITGVSWYDFKQKLKYKAECGNMEFIEIGRFDPSFEIWSRCGWIDYNLKLSDRIFRCENCGLVIDRDLNTAINISNMELKKVGKGIPEFTPVDIATAADPTIRTGTASSRSMNREPPKPKRLEHHHHHH | not soluble
AEMKNLKIEVVRYNPEVDTAPHSAFYEVPYDATTSLLDALGYIKDNLAPDLSYRWSCRMAICGSCGMMVNNVPKLACKTFLRDYTDGMKVEALANFPIERDLVVDMTHFIESLEAIKPYIIGNSRTADQGTNIQTPAQMAKYHQFSGCINCGLCYAACPQFGLNPEFIGPAAITLAHRYNEDSRDHGKKERMAQLNSQNGVWSCTFVGYCSEVCPKHVDPAAAIQQGKVESSKDFLIATLKPR | soluble
MSTTKAFKMTYTNAGNKKTEQVIQATEPLTILLMGVDTGGEGRGTSDSWNGNSDSQILMTLNPKTHTTTMVSIERDTMTNILDADGNIVSKQKMNAAYPLGYNSGSSSDGLKNAVSYAMKTISAQTGINIDSFVTVNFDGLVNMVDNVGGIDINNTTGQTLYISDTEPQYTAKVPPGKQHINGDQALVYTRDRHHLSNGDYGRAAHQREVIAALMKKILALDNITRYEQFLNEASKDFRTNIPINASTITSLLGYKDCFNKVVSIQYEGVGEMVDGASYQFMPTDIYLAMQNIMKKSLDESTVTTLPSSLITYESVFGSGTAPFYYLPSATVTEKGKSTVTYGVDTQGNLVSLNSKNSGNYVSTSGGSVQSDSSSGSSSSSSDSTATSSSDSTYQQDNTYNDGYNNSNDSTTSSYGTDDTNTGNYGYGTSQLEHHHHHH | soluble
MGSDKIHHHHHHMPEFRKDPIIKRWVIIATERAKRPHDFARTKVEEVREGFCPFDYGNEHTTPPEIFAFRPADTEPNTPGWWVRVVPNKFPAVDPNAPLRKYGRGMYDAAMGFGYHDVVVETPDHNSHLAVMDYKNVEEVIWAYKIRYEQLMKDERIKYILIFKNHGRDAGASLSHPHSQIIALPIMPKRVQEELDGSKEYYEYKERCPFCDIIDEEKRERERIVEENDHFIALEPFAARFPFETWILPKRHMNSFHLISEDEVGSLAKILKNVLYRIYAALDNPPYNLLIHTAPTSLEGKDYYHWHIEIFPRLTKVAGFEWGTGFYINTVPPEDAARYLREVSLEQV | not soluble
MSLSNLPADSFRVGVSEDRNRRCRRTMEDAHSFVYDFAGVKGQGYFAVFDGHAGKHAAEWCGQNFHEYLLDGLLIEPDTPVPDLMNKTFHLVDKRLSHLAHAAGTSSGCTAVTAFLRVEEMDDNDSFRKGFTNPGLQPRGLWEGKGEDELESQTSLQPSSRRSSMGGGTGGQMGGASAPGVNGRTGSLARRLSSKKIRDFVKGLTGGMEKNFDEAITEDEGVISAADGTRVEAIEPKSEKGVRRVLYTANVGDARAVLCRGGKAVRLTYDHKGSDAQEAKRITDAGGFVMNNRVNGVLAVTRSLGDASMKEFVVGAPYTTETTLDEQDEFLIVACDGLWDVCSDQEAVEIVHLVTDPQEASKRLLDHAMSNFSTDNLSVMVVRFNHEGHHHHHH | soluble
MMNASTKFSDNYDVKEELGKGAFSVVRRCVHKTTGLEFAAKIINTKKLSARDFQKLEREARICRKLQHPNIVRLHDSIQEESFHYLVFDLVTGGELFEDIVAREFYSEADASHCIQQILESIAYCHSNGIVHRDLKPENLLLASKAKGAAVKLADFGLAIEVNDSEAWHGFAGTPGYLSPEVLKKDPYSKPVDIWACGVILYILLVGYPPFWDEDQHRLYAQIKAGAYDYPSPEWDTVTPEAKSLIDSMLTVNPKKRITADQALKVPWICNRERVASAIHRQDTVDCLKKFNARRKLKAAISAVKMVTRMSGVLRTSDSTGSVASNGSTTHDASQVAGTSSQPTSPAAEVYPNVLLFNPQKFPRNCVHPFTTHPYYSPKESSKKKLFFTLLFEVCPHTSRSHILLRDNTKNIYHPYHCFTNKMSNYERAAPSSHGSSTTKKIANAIADLVIRRSSPSIRRKTEADVHNSNRNRKVSAPANLQHALVPVIDVVVATGALASSSVDNLSASTSSDLGRNLLNKKEQGPPSTIKESSESSQTIDDNDSEKGGGQLKHENTVVRADGATGIVSSSNSSTASKSSSTNLSAQKQDIVRVTQTLLDAISCKDFETYTRLCDTSMTCFEPEALGNLIEGIEFHRFYFDGNRKNQVHTTMLNPNVHIIGEDAACVAYVKLTQFLDRNGEAHTRQSQESRVWSKKQGRWVCVHVHRSTQPSTNTTVSEF | not soluble
AAPGKPTIAWGNTKFAIVEVDQAATAYNNLVKVKNAADVSVSWNLWNGDTGTTAKILLNGKEAWSGPSTGSSGTANFKVNKGGRYQMQVALCNADGCTASDATEIVVADTDGSHLAPLKEPLLEKNKPYKQNSGKVVGSYFVEWGVYGRNFTVDKIPAQNLTHLLYGFIPICGGNGINDSLKEIEGSFQALQRSCQGREDFKVSIHDPFAALQKAQKGVTAWDDPYKGNFGQLMALKQAHPDLKILPSIGGWTLSDPFFFMGDKVKRDRFVGSVKEFLQTWKFFDGVDIDWEFPGGKGANPNLGSPQDGETYVLLMKELRAMLDQLSAETGRKYELTSAISAGKDKIDKVAYNVAQNSMDHIFLMSYDFYGAFDLKNLGHQTALNAPAWKPDTAYTTVNGVNALLTQGVKPGKIVVGTAMYGRGWTGVNGYQNNIPFTGTATGPVKGTWENGIVDYRQIASQFMSGEWQYTYDATAEAPYVFKPSTGDLITFDDARSVQAKGKYVLDKQLGGLFSWEIDADNGDILNSMNASLGNSAGVQLEHHHHHH | soluble
